Experiment [1] concerns the target RacGAP1 (UniProt Q9H0H5). Description: Strep-tactin pull-down from HeLa lysate, label-free quantification mass spectrometry. The note with it: three biological repeats measured in three technical repeats each; -log10(p-value) est. 2.8; read off a plot.
The target in experiment [2] is LYST. The description is as above. Particulars: three biological repeats measured in three technical repeats each; -log10(p-value) est. 0.97; read off a plot.
For experiment [3], the target named is TUBA3C. Described as above. Particulars: three biological repeats measured in three technical repeats each; -log10(p-value) est. 4.2; read off a plot.
The target of experiment [4] is NUP35. The experiment is described as above. The note with it: three biological repeats measured in three technical repeats each; -log10(p-value) est. 3.6; read off a plot.
The target of experiment [5] is COPS7A. The description is as above. Particulars: three biological repeats measured in three technical repeats each; -log10(p-value) est. 2.2; read off a plot.
Experiment [6] deals with HSP90AB4P. The description is as above. Particulars: three biological repeats measured in three technical repeats each; -log10(p-value) est. 1.0; read off a plot.
Experiment [7] addresses EIF1. Described as above. The note with it: three biological repeats measured in three technical repeats each; -log10(p-value) est. 1.2; read off a plot.
The target of experiment [8] is Nbla03646. Described as above. Particulars: three biological repeats measured in three technical repeats each; -log10(p-value) est. 2.1; read off a plot.
For experiment [9], the target named is BAX. The experiment is described as above. The note with it: three biological repeats measured in three technical repeats each; -log10(p-value) est. 1.7; read off a plot.
The target in experiment [10] is TUBA1A. Described as above. Particulars: three biological repeats measured in three technical repeats each; -log10(p-value) est. 3.7; read off a plot.
The target of experiment [11] is TIMM13. The description is as above. Particulars: three biological repeats measured in three technical repeats each; -log10(p-value) est. 2.6; read off a plot.
The target of experiment [12] is FAM91A1. Described as above. Particulars: three biological repeats measured in three technical repeats each; -log10(p-value) est. 3.0; read off a plot.
The target of experiment [13] is TUBB4A. Described as above. The note with it: three biological repeats measured in three technical repeats each; -log10(p-value) est. 3.8; read off a plot.
Experiment [14] concerns the target TUBB2B. Described as above. Particulars: three biological repeats measured in three technical repeats each; -log10(p-value) est. 3.6; read off a plot.
In experiment [15] the target is UBL4A. The description is as above. Particulars: three biological repeats measured in three technical repeats each; -log10(p-value) est. 1.4; read off a plot.
Experiment [16] has as its target SMG8. The experiment is described as above. Particulars: three biological repeats measured in three technical repeats each; -log10(p-value) est. 2.2; read off a plot.
The target in experiment [17] is GPHN. Described as above. Particulars: three biological repeats measured in three technical repeats each; -log10(p-value) est. 1.3; read off a plot.
Experiment [18] has as its target KIF18B (UniProt Q86Y91). The description is as above. Particulars: three biological repeats measured in three technical repeats each; -log10(p-value) est. 1.5; read off a plot.
The target of experiment [19] is ANAPC16. Description: Strep-tactin pull-down, mass spectrometry spectral counting. The note with it: complexes SUMOylated in vitro, HeLa lysate added; three biological repeats measured in three technical repeats each.
The target of experiment [20] is CDC16. Described as above. The note with it: complexes SUMOylated in vitro, HeLa lysate added; three biological repeats measured in three technical repeats each.
Experiment [21] deals with CDC26. The experiment is described as above. Particulars: complexes SUMOylated in vitro, HeLa lysate added; three biological repeats measured in three technical repeats each.
Experiment [22] addresses ANAPC5. The experiment is described as above. The note with it: complexes SUMOylated in vitro, HeLa lysate added; three biological repeats measured in three technical repeats each.
In experiment [23] the target is ANAPC2. The description is as above. The note with it: complexes SUMOylated in vitro, HeLa lysate added; three biological repeats measured in three technical repeats each.
The target of experiment [24] is ANAPC10. The experiment is described as above. The note with it: complexes SUMOylated in vitro, HeLa lysate added; three biological repeats measured in three technical repeats each.
In experiment [25] the target is CDC27. The experiment is described as above. Particulars: complexes SUMOylated in vitro, HeLa lysate added; three biological repeats measured in three technical repeats each.
Experiment [26] addresses ANAPC1. The experiment is described as above. Particulars: complexes SUMOylated in vitro, HeLa lysate added; three biological repeats measured in three technical repeats each.
For experiment [27], the target named is ANAPC15. The experiment is described as above. Particulars: complexes SUMOylated in vitro, HeLa lysate added; three biological repeats measured in three technical repeats each.
For experiment [28], the target named is ANAPC13. The experiment is described as above. Particulars: complexes SUMOylated in vitro, HeLa lysate added; three biological repeats measured in three technical repeats each.
Experiment [29] concerns the target CDC23. The description is as above. Particulars: complexes SUMOylated in vitro, HeLa lysate added; three biological repeats measured in three technical repeats each.
The target of experiment [30] is ANAPC16. Description: Strep-tactin pull-down, label-free quantification mass spectrometry. The note with it: complexes SUMOylated in vitro, HeLa lysate added; three biological repeats measured in three technical repeats each.
Experiment [31] concerns the target CDC16. Described as above. The note with it: complexes SUMOylated in vitro, HeLa lysate added; three biological repeats measured in three technical repeats each.
In experiment [32] the target is CDC26. The description is as above. Particulars: complexes SUMOylated in vitro, HeLa lysate added; three biological repeats measured in three technical repeats each.
The target of experiment [33] is ANAPC5. The experiment is described as above. Particulars: complexes SUMOylated in vitro, HeLa lysate added; three biological repeats measured in three technical repeats each.
For experiment [34], the target named is ANAPC2. The description is as above. The note with it: complexes SUMOylated in vitro, HeLa lysate added; three biological repeats measured in three technical repeats each.
The target in experiment [35] is ANAPC10. The experiment is described as above. Particulars: complexes SUMOylated in vitro, HeLa lysate added; three biological repeats measured in three technical repeats each.
The target in experiment [36] is CDC27. The experiment is described as above. The note with it: complexes SUMOylated in vitro, HeLa lysate added; three biological repeats measured in three technical repeats each.
Experiment [37] has as its target ANAPC1. The experiment is described as above. Particulars: complexes SUMOylated in vitro, HeLa lysate added; three biological repeats measured in three technical repeats each.
For experiment [38], the target named is ANAPC15. The experiment is described as above. Particulars: complexes SUMOylated in vitro, HeLa lysate added; three biological repeats measured in three technical repeats each.
Experiment [39] addresses ANAPC13. The experiment is described as above. The note with it: complexes SUMOylated in vitro, HeLa lysate added; three biological repeats measured in three technical repeats each.
Experiment [40] concerns the target CDC23. The experiment is described as above. Particulars: complexes SUMOylated in vitro, HeLa lysate added; three biological repeats measured in three technical repeats each.

We go through two substances from paper PMC5856775.

UniProt Q9H0H5, sequence (Q9H0H5 whole entry, looked up): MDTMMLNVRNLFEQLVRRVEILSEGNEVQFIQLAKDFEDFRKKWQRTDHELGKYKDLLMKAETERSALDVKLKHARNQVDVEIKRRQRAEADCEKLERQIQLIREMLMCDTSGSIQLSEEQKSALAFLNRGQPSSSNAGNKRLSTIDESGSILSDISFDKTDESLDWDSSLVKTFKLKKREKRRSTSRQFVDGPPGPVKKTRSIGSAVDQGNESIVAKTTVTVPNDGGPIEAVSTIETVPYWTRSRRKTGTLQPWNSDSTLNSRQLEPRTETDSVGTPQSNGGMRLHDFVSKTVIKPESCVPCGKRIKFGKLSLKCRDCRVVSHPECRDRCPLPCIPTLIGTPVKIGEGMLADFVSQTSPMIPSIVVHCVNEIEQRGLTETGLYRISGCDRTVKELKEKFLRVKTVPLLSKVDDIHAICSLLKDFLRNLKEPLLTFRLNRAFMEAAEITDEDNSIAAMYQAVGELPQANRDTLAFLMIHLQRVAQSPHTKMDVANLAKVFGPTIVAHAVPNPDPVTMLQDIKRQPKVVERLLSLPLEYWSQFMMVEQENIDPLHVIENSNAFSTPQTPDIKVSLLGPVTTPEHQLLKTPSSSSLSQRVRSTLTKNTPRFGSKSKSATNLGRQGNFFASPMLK
UniProt Q86Y91, sequence (Q86Y91 whole entry, looked up): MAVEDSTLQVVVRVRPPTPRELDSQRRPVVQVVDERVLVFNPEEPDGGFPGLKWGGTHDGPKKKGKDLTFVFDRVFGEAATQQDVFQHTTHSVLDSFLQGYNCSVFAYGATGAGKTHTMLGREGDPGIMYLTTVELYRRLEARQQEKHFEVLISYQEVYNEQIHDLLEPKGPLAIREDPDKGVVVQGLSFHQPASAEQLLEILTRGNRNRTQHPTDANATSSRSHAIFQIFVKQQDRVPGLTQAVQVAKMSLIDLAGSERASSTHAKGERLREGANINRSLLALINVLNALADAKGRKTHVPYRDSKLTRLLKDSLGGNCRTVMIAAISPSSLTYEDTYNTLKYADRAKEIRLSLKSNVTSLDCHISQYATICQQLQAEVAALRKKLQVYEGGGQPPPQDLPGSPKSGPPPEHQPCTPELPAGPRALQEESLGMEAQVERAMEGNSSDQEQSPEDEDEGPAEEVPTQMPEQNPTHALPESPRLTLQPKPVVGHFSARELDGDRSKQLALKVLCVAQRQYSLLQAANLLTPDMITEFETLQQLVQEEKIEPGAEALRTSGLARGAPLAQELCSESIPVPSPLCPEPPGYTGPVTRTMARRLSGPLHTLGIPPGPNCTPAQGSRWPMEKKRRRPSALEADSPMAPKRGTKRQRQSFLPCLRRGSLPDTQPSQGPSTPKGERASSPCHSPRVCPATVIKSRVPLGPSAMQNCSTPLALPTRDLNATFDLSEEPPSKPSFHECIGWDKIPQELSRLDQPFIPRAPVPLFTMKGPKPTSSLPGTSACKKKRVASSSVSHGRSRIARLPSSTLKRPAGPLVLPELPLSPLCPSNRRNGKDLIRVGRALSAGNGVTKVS

As for “SUMOylated recombinant APC/C containing APC4 wild type (from UniProt Q9UJX5;P55854;Q9UJX3;Q9NYG5;Q9H1A4;Q9UJX6;P30260;Q9UJX4;Q9UJX2;P60006) K772R; K798R”, the other: Ratio (log2) of protein intensities, wild-type APC4 / mutant APC4 was -1.6 log2 in [1]; 3.8 log2 in experiment [2]; -1.9 log2 in [3]; -1.4 log2 in experiment [4]; 1 log2 in experiment [5]; 2.5 log2 in experiment [6]. Moreover, the other: Ratio (log2) of protein intensities, wild-type APC4 / mutant APC4 in [7] was -1.6 log2; in [8] it was -2.9 log2; in [9] it was 1.3 log2; in experiment [10], -1.5 log2; in [11], -1.8 log2; in [12], 2.4 log2. Moreover, the other: Ratio (log2) of protein intensities, wild-type APC4 / mutant APC4 was -1 log2 in experiment [13]; 4.3 log2 in experiment [14]; -1.4 log2 in experiment [15]; -1 log2 in experiment [16]; -1.7 log2 in experiment [17]; 1.8 log2 in [18].

On to “Strep-tagged APC4 wild type of the recombinant APC/C, SUMOylated in vitro (from UniProt Q9UJX5;P55854) K772R; K798R”, for which the other: MS/MS ratio (WT/mutant, log2) in experiment [19] is 0.19 log2; in experiment [20], 0.23 log2; in experiment [21] it was 0.17 log2; in [22], 0.17 log2; in [23], 0.08 log2; in [24], 0.34 log2. Also, the other: MS/MS ratio (WT/mutant, log2) in [25] was determined as 0.24 log2; in experiment [26], 0.26 log2; in experiment [27], 0.2 log2; in experiment [28], 0.12 log2; in experiment [29], 0.31 log2. Besides, the other: LFQ ratio (WT/mutant, log2) in [30] was 0.37 log2; in experiment [31], 0.34 log2; in [32], 0.49 log2; in experiment [33], 0.22 log2; in experiment [34], 0.4 log2; in experiment [35], 0.44 log2. Further, the other: LFQ ratio (WT/mutant, log2) is 0.36 log2 in experiment [36]; 0.35 log2 in experiment [37]; 0.4 log2 in [38]; 0.25 log2 in experiment [39]; 0.33 log2 in experiment [40].
